Data published in publication PMC7113858 (Journal of Virological Methods, 2017).
Where two headings read alike, the source gives them in different places.

B1: 43A9 (antibody, V domains shown)
VH: QVQLQQSGAELARPGASVKLSCNASGYIFSSYWMQWVKQRPGQGLEWIGAIYPGDGDTRYSQKFRGKATVTADKSSSTAYMQLSSLASADSAVYYCARFGDGYYYPMDYWGQGTSVTVSS
VL: DIVMTQAAPSVPVTPGESVSISCRSSKSLLHSNGNTYLYWFLQRPGQSPQLLIYRMSNLASGVPDRFSGSGSGTAFTLRISRVEAEDVGVYYCMQHLEYPFTFGSGTKLEIK
B2: MAb 45E11 (antibody, V domains shown)
VH: QVQLKESGPGLVAPSQSLSITCTVSGFSLTGFGVNWVRQPPGKGLEWLGMIWGDGGTDYNSTLKSRLSFSKDNSKSQVFLKMNSLQTDDTARYYCARAAGTGDYFDYWGQGTTLTVSS
VL: DIQMTQSPASLSASVGETVTITCRASENIYSYLAWYQQKQGKSPQLLVYNAKTLAEGVPSRFSGSGSGTQFSLKINSLQPEDFGSYYCQHHYGTPWTFGGGTKLEIK
B3: MAb 45C2 (antibody, V domains shown)
VH: QVQLKESGPGLVAPSQSLSITCTVSGFSLTGYGVNWVRQPPGKGLEWLGMIWGDGGTDYNSALKSRLSITKDNSKSQVFLKMNSLLPDDTARYYCARAAGTGDYFDYWGQGTTLTVSS
VL: DIQMTQSPASLSASVGETVTITCRASENIDSYLAWYQQKQGKSPQLLVYNAKTLAEGVPSRFGGSGSGTQFSLKIYSLQPEDFGNYYCQHHYGTPWTFGGGTKLEIK

Experiments:
[1] = biological target: S protein of MERS-CoV (MERS-CoV, strain not named; EMC/2012 …, UniProt K0BRG7)
[2] = biological target: T1, mouse Fc-tagged RBD of MERS-CoV (MERS-CoV, strain not named; EMC/2012 …, UniProt K0BRG7)
[3] = biological target: T1, mouse Fc-tagged RBD of MERS-CoV; experiment: immunostaining of cells or tissue
[4] = biological target: N protein of MERS-CoV (MERS-CoV, strain , UniProt K9N4V7); experiment: immunostaining of cells or tissue
[5] = biological target: mouse Fc-tagged RBD of Bt-CoV-HKU4 (Bat coronavirus HKU4 (BtCoV/HKU4/2004), UniProt A3EX94); experiment: immunostaining of cells or tissue
[6] = biological target: mouse Fc-tagged RBD of Bt-CoV-HKU5 (Bat coronavirus HKU5 (BtCoV/HKU5/2004), UniProt A3EXD0); experiment: immunostaining of cells or tissue
[7] = biological target: receptor-binding domain (RBD) of the SARS-CoV S protein, amino acids 318-510, histidine-tagged (SARS-CoV, strain , UniProt P59594); experiment: ELISA

Binder | binding result [1] | binding result [2] | binding result [3] | binding result [4] | binding result [5] | binding result [6] | binding result [7]
B1 | binds | binds | – | – | – | – | –
B2 | – | – | binds | no binding | no binding | no binding | no binding
B3 | – | – | binds | no binding | no binding | no binding | no binding
